{"source": "ChEMBL document CHEMBL1140886", "about": "“Development of an optimized activatable MMP-14 targeted SPECT imaging probe” (Bioorg Med Chem, 2009)", "proteins": {"B1": {"name": "Matrix metalloproteinase-9 (Homo sapiens), P14780 (protein)", "chain": "MSLWQPLVLVLLVLGCCFAAPRQRQSTLVLFPGDLRTNLTDRQLAEEYLYRYGYTRVAEMRGESKSLGPALLLLQKQLSLPETGELDSATLKAMRTPRCGVPDLGRFQTFEGDLKWHHHNITYWIQNYSEDLPRAVIDDAFARAFALWSAVTPLTFTRVYSRDADIVIQFGVAEHGDGYPFDGKDGLLAHAFPPGPGIQGDAHFDDDELWSLGKGVVVPTRFGNADGAACHFPFIFEGRSYSACTTDGRSDGLPWCSTTANYDTDDRFGFCPSERLYTQDGNADGKPCQFPFIFQGQSYSACTTDGRSDGYRWCATTANYDRDKLFGFCPTRADSTVMGGNSAGELCVFPFTFLGKEYSTCTSEGRGDGRLWCATTSNFDSDKKWGFCPDQGYSLFLVAAHEFGHALGLDHSSVPEALMYPMYRFTEGPPLHKDDVNGIRHLYGPRPEPEPRPPTTTTPQPTAPPTVCPTGPPTVHPSERPTAGPTGPPSAGPTGPPTAGPSTATTVPLSPVDDACNVNIFDAIAEIGNQLYLFKDGKYWRFSEGRGSRPQGPFLIADKWPALPRKLDSVFEERLSKKLFFFSGRQVWVYTGASVLGPRRLDKLGLGADVAQVTGALRSGRGKMLLFSGRRLWRFDVKAQMVDPRSASEVDRMFPGVPLDTHDVFQYREKAYFCQDRFYWRVSSRSELNQVDQVGYVTYDILQCPED"}}, "substrate": "CC[C@H](C)[C@H](NC(=O)[C@H](CCCNC(=N)N)NC(=O)CNC(=O)[C@@H](N)CO)C(=O)NCC(=O)N[C@@H](Cc1ccccc1)C(=O)N[C@@H](CC(C)C)C(=O)N[C@@H](CCCNC(=N)N)C(=O)N[C@H](C(=O)N[C@@H](C)C(=O)O)[C@@H](C)O", "experiment": "Ratio of kcat/km for MMP9 assessed as drug cleavage", "data": [{"protein": "B1", "values": [{"measurement": "kcat/Km", "value": 20000, "unit": "M⁻¹ s⁻¹"}]}]}
